Substrate in series [1]: NCc1ccccc1
The series can be described thus: purified protein, by the assay type. To be noted: pH 7.5.

Substrate in series [2]: NCCC(=O)c1ccccc1N
The series can be described thus: Steady-state substrate oxidation and pH dependence, WT MAO B. The format is biochemical, human. The following applies: other: WT MAO B, pH 7.5.

Substrate in series [3]: NCCc1ccccc1
The description is as above. The format is biochemical, human. To be noted: other: WT MAO B, pH 7.5.

Substrate in series [4]: NCCC(=O)c1ccccc1N
The series can be described thus: Steady-state substrate oxidation and pH dependence, Ile199Ala MAO B. The class given is biochemical, human. The following applies: other: I199A, pH 7.5.

Substrate in series [5]: NCCc1ccccc1
The series is described as above. The class given is biochemical, human. To be noted: other: I199A, pH 7.5.

Substrate in series [6]: NCCC(=O)c1ccccc1N
The series can be described thus: Steady-state substrate oxidation and pH dependence, Ile199Ala/Tyr326Ala MAO B. To be noted: other: I199A-Y326A, pH 7.5. The format is biochemical, human.

Substrate in series [7]: NCCc1ccccc1
The series is described as above. The class given is biochemical, human. The following applies: other: I199A-Y326A, pH 7.5.

For orientation: Km means the substrate concentration at which the rate is half of its maximum. What is called kcat is the maximal rate divided by the concentration of active sites. As a reminder, the kcat/Km is the second-order rate constant that governs catalysis at low substrate concentration.

B1: WT MAO B (Homo sapiens) (protein)
chain: MSNKCDVVVVGGGISGMAAAKLLHDSGLNVVVLEARDRVGGRTYTLRNQKVKYVDLGGSYVGPTQNRILRLAKELGLETYKVNEVERLIHHVKGKSYPFRGPFPPVWNPITYLDHNNFWRTMDDMGREIPSDAPWKAPLAEEWDNMTMKELLDKLCWTESAKQLATLFVNLCVTAETHEVSALWFLWYVKQCGGTTRIISTTNGGQERKFVGGSGQVSERIMDLLGDRVKLERPVIYIDQTRENVLVETLNHEMYEAKYVISAIPPTLGMKIHFNPPLPMMRNQMITRVPLGSVIKCIVYYKEPFWRKKDYCGTMIIDGEEAPVAYTLDDTKPEGNYAAIMGFILAHKARKLARLTKEERLKKLCELYAKVLGSLEALEPVHYEEKNWCEEQYSGGCYTTYFPPGILTQYGRVLRQPVDRIYFAGTETATHWSGYMEGAVEAGERAAREILHAMGKIPEDEIWQSEPESVDVPAQPITTTFLERHLPSVPGLLRLIGLTTIFSATALGFLAHKRGLLVRV
For the protein B1, the Michaelis-Menten constant (Km) in series [1] (other: WT MAO B) was 150 ± 27 µM; in series [2], 27 ± 2 µM; in series [3], 9.4 ± 0.9 µM. For the same protein, the kcat in series [1] (other: WT MAO B) is 5 s⁻¹; in series [2] it was 1.6 ± 0.0167 s⁻¹; in series [3], 2.87 ± 0.05 s⁻¹. Besides, the kcat/Km in series [1] (other: WT MAO B) was found to be 33300 M⁻¹ s⁻¹; in series [2], 59200 ± 4500 M⁻¹ s⁻¹; in series [3], 300000 ± 33300 M⁻¹ s⁻¹.

B2: Ile199Ala MAO B (Homo sapiens; I199A) (protein)
chain: MSNKCDVVVVGGGISGMAAAKLLHDSGLNVVVLEARDRVGGRTYTLRNQKVKYVDLGGSYVGPTQNRILRLAKELGLETYKVNEVERLIHHVKGKSYPFRGPFPPVWNPITYLDHNNFWRTMDDMGREIPSDAPWKAPLAEEWDNMTMKELLDKLCWTESAKQLATLFVNLCVTAETHEVSALWFLWYVKQCGGTTRIASTTNGGQERKFVGGSGQVSERIMDLLGDRVKLERPVIYIDQTRENVLVETLNHEMYEAKYVISAIPPTLGMKIHFNPPLPMMRNQMITRVPLGSVIKCIVYYKEPFWRKKDYCGTMIIDGEEAPVAYTLDDTKPEGNYAAIMGFILAHKARKLARLTKEERLKKLCELYAKVLGSLEALEPVHYEEKNWCEEQYSGGCYTTYFPPGILTQYGRVLRQPVDRIYFAGTETATHWSGYMEGAVEAGERAAREILHAMGKIPEDEIWQSEPESVDVPAQPITTTFLERHLPSVPGLLRLIGLTTIFSATALGFLAHKRGLLVRV
In the case of B2, in series [4], the Km stood at 94 ± 8 µM, the catalytic constant (kcat) turned out to be 1.47 ± 0.0333 s⁻¹ and the kcat/Km was found to be 15600 ± 1370 M⁻¹ s⁻¹. In addition, in series [5], the Michaelis constant (Km) amounted to 40 ± 2 µM, the kcat was determined as 2.05 ± 0.0333 s⁻¹ and the kcat/Km was 51700 ± 3330 M⁻¹ s⁻¹. Besides, in series [1] (other: I199A), the Michaelis-Menten constant (Km) was 2133 ± 409 µM, the catalytic constant (kcat) came to 3.8 s⁻¹ and the kcat/Km was 1780 M⁻¹ s⁻¹.

B3: Ile199Ala/Tyr326Ala MAO B (Homo sapiens; I199A/Y326A) (protein)
chain: MSNKCDVVVVGGGISGMAAAKLLHDSGLNVVVLEARDRVGGRTYTLRNQKVKYVDLGGSYVGPTQNRILRLAKELGLETYKVNEVERLIHHVKGKSYPFRGPFPPVWNPITYLDHNNFWRTMDDMGREIPSDAPWKAPLAEEWDNMTMKELLDKLCWTESAKQLATLFVNLCVTAETHEVSALWFLWYVKQCGGTTRIASTTNGGQERKFVGGSGQVSERIMDLLGDRVKLERPVIYIDQTRENVLVETLNHEMYEAKYVISAIPPTLGMKIHFNPPLPMMRNQMITRVPLGSVIKCIVYYKEPFWRKKDYCGTMIIDGEEAPVAATLDDTKPEGNYAAIMGFILAHKARKLARLTKEERLKKLCELYAKVLGSLEALEPVHYEEKNWCEEQYSGGCYTTYFPPGILTQYGRVLRQPVDRIYFAGTETATHWSGYMEGAVEAGERAAREILHAMGKIPEDEIWQSEPESVDVPAQPITTTFLERHLPSVPGLLRLIGLTTIFSATALGFLAHKRGLLVRV
As for B3, in series [6], the Km worked out at 289 ± 23 µM, the kcat was 1.07 ± 0.0333 s⁻¹ and the kcat/Km came out at 3670 ± 333 M⁻¹ s⁻¹. Moreover, in series [7], the Km was 703 ± 58 µM, the catalytic constant (kcat) came to 1.83 ± 0.0333 s⁻¹ and the kcat/Km was 2670 ± 167 M⁻¹ s⁻¹.

Source of the values: article PMC3228903.
